The results in this text go back to US20090004206A1 (ALETHIA BIOTHERAPEUTICS, published 2009).

The assay deals with T1, Flag-tagged mouse v-ATPase a4 subunit fragment (amino acids 1-388) (mouse, UniProt Q920R6 1-388).
T1 construct: range 1-388; Expressed in 293FT cells from pCMX-Flag/v-ATPase-a4 and used as cell lysate; also called Flag-tagged a4; not shown: Flag tag of vector pCMX-Flag
In words: GST pull-down from 293FT lysate, anti-Flag Western blot. The source says:
ID. NO. 89 (d2) (SEQ ID NO.:154) was cloned into the prokaryotic expression vector, pGEX-2T (Pharmacia, GE Healthcare), expressed as a GST fusion protein in E. coli and purified with glutathione beads. In parallel, cDNA fragments of mouse v-ATPase-a3 (amino acids 1-385) and v-ATPase a4 (amino acids 1-388) were cloned into the eukaryotic expression vector, pCMX-Flag in order to express a Flag-tagged a3 subunit or a4 subunit in mammalian cells. The pCMX-Flag/v-ATPase-a3 and pCMX-Flag/v-ATPase-a4 recombinant plasmids were transfected in 293FT cells and cell lysates were generated in which, the v-ATPase-a3 and v-ATPase-a4 FLAG-tagged polypeptides were readily detected with an anti-Flag antibody (FIG. 21B, II, upper panel).
In order to measure the interaction between d2 (SEQ. ID. NO. 89) and a3 or a4, equal amounts of 293FT lysates containing either Flag-tagged a3 or a4 were incubated with purified GST or GST-d2 at 4° C. for 90 minutes under mild agitation. After washing, the protein mixes were separated on a SDS-PAGE and transferred to PVDF membrane. […] Clearly, only the a3 fragment could be detected in the GST-d2 reactions compared to the GST reactions indicating a specific interaction between d2 and a3 (FIG. 21B, I-a3, upper panel) but not between d2 and a4 (FIG. 21B, I-a4, upper panel). […]
(A western blot detects proteins with antibodies after separation by electrophoresis.)

T1 sequence (Q920R6 1-388): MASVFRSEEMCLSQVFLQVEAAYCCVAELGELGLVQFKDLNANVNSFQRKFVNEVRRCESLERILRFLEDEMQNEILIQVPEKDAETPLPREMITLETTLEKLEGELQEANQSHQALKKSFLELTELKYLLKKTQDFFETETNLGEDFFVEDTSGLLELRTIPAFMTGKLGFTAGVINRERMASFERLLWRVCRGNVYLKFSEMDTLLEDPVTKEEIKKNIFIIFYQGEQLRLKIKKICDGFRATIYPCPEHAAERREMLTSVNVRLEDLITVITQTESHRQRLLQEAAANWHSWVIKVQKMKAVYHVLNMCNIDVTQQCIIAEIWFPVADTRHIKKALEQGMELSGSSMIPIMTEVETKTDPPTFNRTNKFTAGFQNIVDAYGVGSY

B1: GST-d2 (GST fusion protein of the human v-ATPase d2 subunit, polypeptide SEQ ID NO.:154 encoded by SEQ. ID. NO. 89) (other)
chain: not shown
notes: also called AB0179 human orthologue; not shown: glutathione S-transferase (GST) tag of the prokaryotic expression vector pGEX-2T (Pharmacia, GE Healthcare)
For B1, the binding result is “no binding”.
